Data: the supplement of paper PMC10567573

Assay: protein stability index of a GFP-peptide fusion (GPS, HEK-293T) (PSI 1-6); higher = more stable
Conditions: c terminus: native
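Further: lentivirally expressed fusion library, cells FACS-sorted into six equal-sized GFP/DsRed ratio bins, PSI computed from sequencing read fractions per bin weighted by bin number.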

**Q.** With LPALFTDLYSQEITAEEAREALPI [SNF8 addI] as the protein, how does the protein stability index (parent: NP_009172.2) read?
**A.** Its protein stability index is 3.3.

**Q.** With EQRNSRWNTVLRAVKAKTHHLEPI [TRPA1 addI] as the protein, how does the protein stability index (parent: NP_015628.1) read?
**A.** Its protein stability index is 4.42.

**Q.** For CQPISFSGFGAEDDDLGGLGLGPI [POLD2 addI], which protein stability index (parent: NP_006221.1) is on record?
**A.** The protein stability index was 2.66.

**Q.** With DGWIRVSSDNVADLHEKYSGSTPI [PSMB5 addI] as the protein, how does the protein stability index (parent: NP_002788.1) read?
**A.** The protein stability index was 4.5.
